The record followed here is the DeepSol protein solubility set.

The nature of the series: soluble on expression in E. coli; label from the status in PepcDB or PDB records.
In the case of “MGSSHHHHHHSSGRENLYFQGMRHKIRLIDFILLRFIEERMKVARDVAKEKKKTDSPIVIRDIEEQKIKEILDRTDLNPVRMRRIFEEIMKLAKEEEYRLLGISKTVAVLGPMGSFSDEMAMKLIGSRIPLKYCSTTDEIIEMVEKGEVDYGIVPIENSTYGTVIPVLDALLNHEVEVFGEAKLEIHHCLVAKKKLDLKEIKRIYSHPQAISQSLGFINTYLSHAEIRYTSSTSDAVNLLDDESAAIMSESAAKMYGLLILRRSIQDLKEKNITRFYIIRRKTGKMEGKYTSLFFGVQDRPGSLKAVLDIFASRGINLRKLESRPARTFLGDYVFFVEVEAPLKEEDIRDLERVTAFYKIIGVFDEVEELDVFK”, the “soluble on expression in E. coli” value is “soluble”.

Regarding “MTDYDSLDDNAFRLMVREWIAANYPQRIRNPPRRLGREETREWYLLLSRQGWLCPGWPREYGGMGLSAGKQLIMMEEMEEYGCARLPDSGVTMLGPLLIRYGDEAQRARFLPRILSGEDIWCQGYSEPNAGSDLASLRTEARLENGEWVINGQKTWTTMGSEANWIFLLVRTERSAKAQHGISFLLVPMDSLGIEVRPILNLELHGEFCEVFFNDVRVPYDSLVGEINQGWSMAKALLGFERIFLGSPKQSTFALQRLERLARHLGLWHDPLFARRFAALSMDLDSHKALYERFAERLRRGESLGPEVSMLKIFQSELFQRISELGLEIAGEDSALLQPFAEDPELHPAGIFIQSRPTTIYGGSNEIQRNILAKSVLGLPG”, the “soluble on expression in E. coli” value was “not soluble”.

Turning to “MSFVQPGLAQEKERMWRTLTVSGRGVESIPTTLSEVSLGVEIQGKTAQEVQHEAARRSSAVVALLKSRNVEKLQTTGIRLNPVYSYNNNVQRITGYAASNTVNFRIATEKAGTLLDEAVKAGATQINGISFVATDEAIASARQQALKEATQDAQQQASAVFSSLGFQAKEVVSIQVGGATAPPPPILYRAEAAKLSSADASTPVIGGEQQVEASVTLQISYLEHHHHHH”, the “soluble on expression in E. coli” value is reported as “soluble”.

Consider “MAGDPMMSITIEQIRGALAGVADPQTGLELNVCVKDRDIHLAADPAALTIELGYPAGGVADSVRALAGAALAAAGLGAVRVAVTWNIIAHAVQPGLKPLPQVRNIIAVASGKGGVGKSTTAVNLALALAAEGARAGLLDADIYGPSVPAMLGLAGRPESRDNKTMEPLVGHGLQANSIGLLIDADAPAIWRGPMVTQALEQLLRQTNWRDLDYLVVDMPPGTGDIALTLAQKVPVAGAVIVTTPQDIALLDARKGLRMFQKVHVPILGVVENMAVHICPQCGHAEHIFGAGGGRRVAEQYEVPWLGSLPLQRAIREQTDAGNPTVAAEPESEVAGIYRDIARRVAARIAGLPRDMAGKLPAVVVRPALEHHHHHH”, for which the “soluble on expression in E. coli” value was “not soluble”.

“MSNAYEEYMRQMVIPMRQELVRSGFEELTTEEAVTEFMENTSGTTLVVVNSVCGCAAGLARPSAGQAVVRAEKQPDHLVTVFAGQDKDATAKMREYFGEIPPSSPSMALLKGKEVVHFIHRHEIEGATMDEIITNLEQAFEKNC”: the “soluble on expression in E. coli” value was “soluble”.

As for “MLNIDTQFVDTIGKILSDYVSHSEITRMGEVLGYPQNDQNSGFNKHKRVHNLVSDILNRTQNTDNIKLVIEYVCNPLRYINEVSIFEQLRTAINIPLSLKGLIVSDSGQIVTTTTSKTLSEAKKRFETLDSRLKELKVHPHVLKFCTQELLQENYFHAVFEASKGVFHRIRLLTGSAMDSASLIDQCFKPGEPIVIINGNKLQTLDEQSEYKGLKNLLLAIAHLYRNSKAHKLKYYNPDNLNDALTALTLMSLAHNLLDSCSNTRRLD”, the “soluble on expression in E. coli” value was “soluble”.

Take “EITPLIFQKQTTEEVQNLKPYTALQLEGRDIYIREGCNVCHSQMVRPFRSETERYGHYSVAGESVWEHPFLWGSKRTGPDLARVGGRYSDEWHRVHLLNPRELVPESNMPAFPWLAKNTLDGKYTQQKMTLFRDKFGVPYTDEQIANATKDVEGKTEMDAIIAYLQSLGHAMK”: the “soluble on expression in E. coli” value is listed as “not soluble”.

“MSLKPIIPEDERSKEPLDTDRVIYHPDMIRANEWVLNEYEAPYRELCIFVPCAKRKPYHESPSHKKFDRIIFGIAKPEDVHIVTFGTCGITPRELDTQYPFMHYSFMMGKCNVAKIKRDFIKMESERLAAYLEKTRDNYKHRIAYCIGDFRTAMEKAVEMVDVEVDIVPRESTIQKMIQPDKPFIYNSLSSREYLQDFSDAITDALKLPKRKVGLKEDLSVDDADWYLLEGHHHHHH”: the “soluble on expression in E. coli” value is “soluble”.

Turning to “MNTNMVASELGVSAKTVQRWVKQLNLPAERNELGHYSFTAEDVKVLKSVQKQISEGTAIQDIHLPKSAKKRTGFLVQKTSSDTERRIEQLEQKLDTLLQQRQDESELMARMSELERQLKQKADEGVSYQLLQHRREIDDILADLQSLTSQMKEFTAHSIPETAAASEKTKTRKKPLLSLFKFQTLEHHHHHH”, the “soluble on expression in E. coli” value is listed as “not soluble”.

“MYDTPIFRSEFKVISHELIHALPKVILGESGDAAYMQSRVQQLADDHVAYFECTVPHEDIERAISVAEQAPFTVGILERIDDSSHYTDRSRTPVVVGFSTQSADVAAILRENYVPFEFDGSVADQVRVGASRIIHGIGLFEDFRFEDDDIVPGRLSAWVRDRDYPVLVEPFADLENGEVAELADHPLPLMSKLGYRTASSILSTDRLLELTEYLELQIEDLFELTRDAVAVSLLPQPLRVQLWEELVFPFFEQLGEDFADHSTTDDAESTTELRSEREHAGHAHTDHHGGAAGLEGVDPQFLDEMGIEFDDLDL”: the “soluble on expression in E. coli” value is “not soluble”.

Take “MADSTITIRGYVRDNGCSVAAESTNFTVDLMENAAKQFNNIGATTPVVPFRILLSPCGNAVSAVKVGFTGVADSHNANLLALENTVSAASGLGIQLLNEQQNQIPLNAPSSALSWTTLTPGKPNTLNFYARLMATQVPVTAGHINATATFTLEYQDNHHHHHHKQADSTITIRGYVRDN”: the “soluble on expression in E. coli” value is “soluble”.

Turning to “SAALTDVQRLQSRVEELERWVYGPGGTRGSRKVADGLVKVQVALGNIASKRERVKILYKKIEDLIKYLDPEYIDRIAIPEASKLQFILAEEQFILSQVALLEQVNALVPVLDSASIKAVPEHAARLQRLAQIHIQQQDQCVAITEESKALLEGYNKTTMLLSKQFVQWDELLCQLEAAKQVKPAEE”, the “soluble on expression in E. coli” value is on record as “soluble”.

Consider “GPLGSGMRFMPVQSNFVINHGKLTNQLLQAVAKQTRNGDTQQWFQQEQTTYISRTVNRTLDDYCRSNNSVISKETKGHIFRAVENALQQPLDMNGAQSSIGHFLQSNKYFNQKVDEQCGKRVDPITRFNTQTKMIEQVSQEIFERNFSGFKVSEIKAITQNAILEHVQDTRL”, for which the “soluble on expression in E. coli” value is “soluble”.

As for “MGSDKIHHHHHHMINYHPDQHLLSLHAKGELPLSMSIAISAHAELCPHCQQQLDQMTIALSEQQFESAVKTQSVDTNDNHQLDALLEQLLNSTLDTLEIEQASTIDTIEDNSVSIKGQHYPLPKVFRKQINASWQGIGKVSRLRLDTGEPQARASLLHIAANGEIPEHTHKGAELTLLLAGEFSDCYNTYKPGDFMLLDKEHQHSPKTLEGCLCYTIVDAPLYFTKGFSKLLNPIGDLLY”, the “soluble on expression in E. coli” value is “not soluble”.

Consider “MGSDKIHHHHHHMPTIHLIDGEKGGVGKSLVARTMIQYCLDNNMPFVPVETDRSNPDVAGVYKGICQYAVFTEDERHADKADKIFEIAMNKTVIANLAAQSHRAVKGWIEKNHLIELGESQGVDFCKWFVSTGGYDSLNLFKQSVNSYGGKVPHILVKNLGLCDDWEHVNSDATIQEVVKKYNVKAIDFPKLAYKERNIIDQHRLTFADAREYKEFGIISKQRVVNFLKLAYASFETVGIWYEEVK”, for which the “soluble on expression in E. coli” value is “not soluble”.

As for “MSPKSKSTNKTYTIVIKLGTSSICDEKTHEPLISNLSLIVETVVKLRKLGHNVVLVSSGGIAMGLRRLDLPKRPSKLSAVQAIAAVGQGRLISLWDTLFTQLRQPIAQVLITRNDIAERSQYVNAANTISELLHFGVVPIVNENDTLSVQEIRFGDNDTLSAITAGMINADYLFLLTDVDCLYTDNPRTNPDAKPILKIHDTSMVNANVSTPGSGVGTGGMKTKLIAADLGTSSGVNVIICRGSKPSSIFDIIRQESSDNKNESVELPLHTHFVAKKQGRIRDRHFWLLHGLKSHGSLEIDRGAFEAITRTNRAGLLPVGVTKVHGHFSAHQAVTVIYNGEEIGRALVNYSSTEIDLIKGKRSKEIASILGYNETEYVAYRDYLVVHGLNSHHDSQVSSDEH”, the “soluble on expression in E. coli” value was “soluble”.

“MGSDKIHHHHHHAGLDAVEIGTGGNPGNHHCPTDELLASEAARKEYLEKFTSRGLTISAFSCHDNPISPNKEEAAASDEILRKSIKLASLMNVPVVNTFSGTAGDSDDAKAPNWPVIPWPTVYSDIKTWQWETKLIPYWKEIGELAAASGVKIGIELHGGFLCHTPYTILKLREETNDAIGVNLDPSHLWWQGIDPVGAIKILGKAGAIHHFHAKDTYLDQDNINMYGLTDMQPYGDVQTRSWTFRSVGCGHSLTEWSDIMSALRTYGYDYVVSIEHEDPLMSIDEGFDRAVTNLQSILIKDKPLDMWWA”: the “soluble on expression in E. coli” value is given as “not soluble”.

With “MGSSHHHHHHGKTIFVIVPTNEEQVAFLEALAKQDELNFDWQNPPTEPGQPVVILIPSDMVEWFLEMLKAKGIPFTVYVEEGGSENLYFQGGGGGGTCMMGLEIRPKVVSFAQEKALALRQENAASLTQHYRNVWFEQMNVMKFGSNCFTKGQLSRLFFCYPDPHWKRKNIRRRIISPGLVQEYAYWLRHGGLVYTVSDVAELEEWMVQCLDDSPLFRRLAEAELCTPEHKQVLEIVTGASEDAQRTARKGLQKHFAVHMRI”, the “soluble on expression in E. coli” value is “not soluble”.

As to “MQRETVWLVEDEQGIADTLVYMLQQEGFAVEVFERGLPVLDKARKQVPDVMILDVGLPDISGFELCRQLLALHPALPVLFLTARSEEVDRLLGLEIGADDYVAKPFSPREVCARVRTLLRRVKKFSTPSPVIRIGHFELNEPAAQISWFDTPLALTRYEFLLLKTLLKSPGRVWSRQQLMDSVWEDAQDTYDRTVDTHIKTLRAKLRAINPDLSPINTHRGMGYSLRGL”, the “soluble on expression in E. coli” value was “soluble”.

With “NLYFQGHMVLKLLLELGAERYAEQFAAKCHELGMVMKESAGPGRVPVPVTLQPSMISRGEFGTLCCMQPLWNEAVDNTARNFTFLRDALQETAASDVNFTGKLLNMLQEVYLSGGPFQQLMLGIFRTDYMREGVYDKMLSTTASRWKNVEINTISCSFAGLSPLITEFHQHIAAYLQVLQKARGKEDDDGVENMSWIWGKGNCRLERSVSGDVVPKAIADAVRAWVEQQKFASLRASWEQFQQNEVGSGEIHQLGVLDTAPVVLVVVQENERNTADQYALLMRVLEEHRIRFIFRTLQELHLSLKLHSISPEQPPLAVVDGHYPIAVAYFRSTYVPEDFPTDATWAARLSLERSSAIKCPSIPYHLLTFKKLQQLLCDVDRVLVPVAFCGDSDKAGLLQRHFVPQYSLNPKEVGEEAVEKVIHDVLQRPDQFVLKPQLEGGGNLLSGETMVKALKATKEGDPVTYSKVRCEYVVMSRIQFHVSTGSLLARGDVVQLERNMCSEVGIFGVILSAAKGSSVGTNGSSVLFNTFAGYTVRSKPADADDGGVMAGVAALDSLAVVP”, the “soluble on expression in E. coli” value is “soluble”.

For “SSSSQHFNLNFTITNLPYSQDIAQPSTTKYQQTKRSIENALNQLFRNSSIKSYFSDCQVLAFRSVSNNNNHTGVDSLCNFSPLARRVDRVAIYEEFLRMTHNGTQLLNFTLDRKSVFVD”, the “soluble on expression in E. coli” value is “soluble”.

With “YKEFKLKRVYYSGYIPINHEDHALPAVGSAPPLLRENRLYQSDWLMRFYGFAADEIVNPQHPNLDLDVDPKLGWALRHPEQFPVDINRADYRMILRVPGIGVRSAKKIMHARRFGALRIDQLKRMGVAYSRAQHFIYCID”, the “soluble on expression in E. coli” value was “not soluble”.
